Experimental data taken from a protein production outcome set (Wang et al. 2014).

Experiment: label from the status in PepcDB records

Row | Sequence | protein production
1 | MPFRTPNIANMTDKKFLPQLDENLPTDVFFHYFFLEAKTETLSHSHPWGQLHLIKQGRLEMEVDKQKMFCPANYAIWTPAHLLHRAFNHNDVEYCAINIEFELSQKLPTSACMFPLTPLLRAIVDDLVERQTTEVLSTEDKYLSHVLIERLSKTNPIENYLPFTDDKLLAPILMQLQENPADDSSLEIWAKRVFSTERTLARRFQKELKMSFNDWRQRAKLAKAMVLLKDAISINEIAYQLGYSQGSSFIKMFRKHTGVTPEQFRKEQQGK | failed
2 | MINLAVLGLYLLIGFILKRTGKCPENSAQVLNLYVIYAALPGVIFSKVPALEFSTDLLIPVVIPWVLLAFSAVFIWLLGRAFKWPREVVGALLICVPLGNTSFFGFPMIEAFYGSDAIVYGLLYDQFGSFFGLAIYSTIVIALYREQDNKPTVASVTRQIVTFPPFIALIIALLTKSLVYPEVFQRLIDSLAVTLVPVIMIAVGFQLKFRLPKGSKTPLTIGLLTKLVLMPLITVGLLYGFGFDSTLVQVTIFESAMPPMITAGAVAIMAGLAPRLSAAMVGYGILFAFVSLPIVYQLLQLLSAH | failed
3 | MPQLQKEWFDTWFDTPYYHILYSNRDESEAEVFLTNLMNHMAVPKGASILDLPCGKGRHTLFLAEKGYTLTGADLSVASIALAQSHAPAGVTFLVHDLRKPAWNESFDYVLNLFTSFGYFETEAEDRAAFTTLSKALKSGGSLVIDFMNVTRAVNLLKEEETKVMEGIEFQLKRYVKDGYIHKEIRFEADNTPFFFTERVKALTLDDFKEFFTFAGLTLVDTFGSYQLDAYDAAESDRLIMIAKKLEHHHHHH | not failed
4 | MESWLFLLLIALIAFVAKNQSLLIASVVVLALKALPNSAKIMSWLSDKGINLGVTIISITILVPIATGQIGLKDLIQSFKTPMGWLGILCGILVAVLSSKGVGLINQSPEITVALVFGTILGVVFLKGIAAGPIIASGMMYVIITTFQAFQH | failed
5 | MREAGDAIARLRTLRDAAGRLVASRASLLRRAPVGLVVAAVVIPLVGCDTGPNFWFHKRASACPRPQVAQGVSGQFNQQQQEIRALRQGGFRGDFFAQLELARRYEGQRAVDKNLEDPVEAAVWYAMALANSGGYAPIAAYERRGKESRAVSRFDDCRAFERRSAYGALDRLLSRMSTEEREKVRNRVIYILSTQSADGFRTLARMHDGYFGPFGEPSDNLQAIEAYGKPSQPGAPAALDLFRRNDVDAYLYNYLAVQTGDVSAYVMLKDFERSSPQRASYGSFVETKAKRWIPPYEFYPPESPDSGVPHSDEADLSGEARESALYRIAELPFVHVGESLAYLRVIPTAVLDEKMLSVTEVQTLQSMIGRPNTGRLAPIEKVRAVQYAAVNGSSKAQLVLAVMYSEGVGVPRDYARAYHWYEEAERQGSAEAKYAMSTFFSLGLQGVADQDRAKAVVYQIDGALAGFKPSAWRLQQLLAQVSRPPRAAGERPQPRPIYGADDYRAAPRADDRDPRQDQPGSDRGGRPYNEGNY | failed
6 | MTICCPVIALAFALNRKPVSAPTARIAVLARNTSMSFASLGLIDPLLRNLQDLNYQTPTPVQVKAIPAVLGGKDVMAGAQTGTGKTAGFALPLLQRLVQQGPAVSSNRARVLVLVPTRELAEQVLQSFVAYGKGLDLRFLAAYGGVSINPQMMKLRKGVDVLVATPGRLLDLNRQNAVQFDQVETLVLDEADRMLDLGFARELNAVFAALPVQRQTLLFSATFTDDIRTMAASILRSPVNISVSPPNVTGSKIKQWVVTVDKRNKPDLFMHLVAENNWDHALVFVKTRNGVEYLAAMLDEAGYAVDTIHGDKPQPARLRALERFKTGEVQMLVATDVAARGLDIDDLPLVINVDLPIVAQDYVHRIGRTGRAGASGVAVSLVCADEAPQLAAIEALIGQTLRREEEPGFEAEHRVPETSSTGQIIKKPKKPKKPKVPQGGAAATPVAGKKPQPQGGDGKRKGGGAAGKGASVLNGSPFSVQKPRGKGKPAGKAVAGARKPAGKPAGGRGKH | failed
7 | MKPNFKNIDIYAGFQPQNGMEWQKENGITADWKTPEHINVKPVYTKEDLEGMEHLNYVAGIPPYLRGPYSMMYTFRPWTIRQYAGFSTAEESNAFYRRNLASGQKGLSVAFDLPTHRGYDPDHERVVGDVGKAGVSICSLENMKVLFDGIPLNKMSVSMTMNGAVLPIMAFYINAGLEQGAKLEEMAGTIQNDILKEFMVRNTYIYPPAFSMKIISDIFEYTSQKMPKFNSISISGYHMQEAGATADIELAYTLADGLEYLRAGVAAGIDIDAFAPRLSFFWAIGMNHFMEIAKMRAARMLWAKIVKQFNPKNPKSLALRTHSQTSGWSLTEQDPFNNVGRTCIEAMAAALGHTQSLHTNALDEAIALPTDFSARIARNTQIYIQEETYVCKNVDPWGGSYYVESLTNELAHKAWEHIQEIESLGGMAKAIETGVPKMRIEEAAARTQARIDSGAQTIVGTNKYRLEKEDPIDILEVDNTAVRLEQIENLKRLKEGRNQAEVDKALAAITECVKTGKGNLLELAVEAAHVRATLGEISDACETIVGRYKAVIRTISGVYSSESKKDTDFARACELTEEFAKKEGRRPRIMIAKMGQDGHDRGAKVVATGYADCGFDVDMGPLFQTPAEAARDAVENDVHVVGVSSLAAGHKTLIPQIIEELKKLGREDILVIAGGVIPAQDYDFLYKAGVVAIFGPGTSVAKAAVQIMDILLDEEE | failed
8 | MMYTNDNRIVMTLDAGGTNFVFSAIQGGKEIADPVVLPACADCLDKCLGNLVEGFKAIQAGLPEAPVAISFAFPGPADYQAGIIGDLPNFPSFRGGVALGPFLEDIFGIPVFINNDGSLFAYGEALTGVLPEINRRLREAGSTKRYKNLLGVTLGTGFGAGVVIDGELLRGDNAAGGYVWCLRNKKYPEYIVEESVSIRAVMRVYAERSGDAGARTPKEIFEIAEGIRPGNREAAIAAFEELGEMAGDALASAITLIDGLIVIGGGLSGASKYILPVLLKEMNAQTGMMDGARFGRLQKEVYDLDEEKSFAGFARGEAVEVLVPGTNRKVGYDPCKRIGVTFSKQGANRSIAMGAYVFALNHLSK | not failed
9 | MKVTVVSRSGREVLKAPLDLPDSATVADLQEAFHKRAKKFYPSRQRLTLPVTPGSKDKPVVLNSKKSLKEYCDGNNNSLTVVFKDLGAQVSYRTLFFFEYLGPLLIYPVFYYFPVYKFLGYGEDCVIHPVQTYAMYYWCFHYFKRILETFFVHRFSHATSPIGNVFRNCAYYWSFGAYIAYYVNHPLYTPVSDLQMKIGFGFGLVCQVANFYCHILLKNLRDPSGAGGYQIPRGFLFNIVTCANYTTEIYQWLGFNIATQTIAGYVFLAVAALIMTNWALGKHSRLRKIFDGKDGKPKYPRRWVILPPFL | failed
10 | MAVECIKDKVTRYPERASYSDEDLVAMLDRNFTCTVSFIDGGIPYAIPMMLASEGKTIYLHGSMKSRIYGILKTGQLIAISLLEINGIVLAKEIKNNSINYVSALIFGRPYEIDDTEKKIEVFRLLTEKLVKGRRDNSIKPSYEDLNGVFVFAVKPETFSMKARTGPPHDTSTDDIWSGVLPIQHTISEAGENAPEYVKSLYGKRIFI | not failed
11 | MLLSFDNKAIADWAKLSGDYNPIHFEVERARETGANDIIVHGMLPLLHIKQRLSTVLPADTGRDWVSVKAMFRSPVLRQLPHALEIQPGKQRSRFSLRATHDASEVMAGSVYRSVPAESPEQPASFSIDRQLFREKRAVFAEAFPDFDRAWLLVDALTFSQFLSSEVPFSIVRDLAKMSGIASQHELMDAALTVQTAHTVMVEPELFRMPLSQLKDPGEIRCELHAPVTVPNSKDTLSGLSQFTVRLDGRPVMQSEVGLLVRFKS | failed
12 | MANISLKQGQFVTNSLPNKWKFRNLTKILLRRRFIVLGVSCMVISATSFTAITNKPTYKSQMQILVSPNVSEEVGITNNNIDIPISIEQYSVQKNLMQSSKLIDKVVNLLSFDYPNITKENILGKTENSENSPLKVTQLETNKGAKQVLSPVFEISFQDNDPLKTKKVLLALQKVYQDYNLERRQERFNQGLAFINARLPVIKQQLRQAERKLEQFRKKHNLLDPELQSQVLIKSLTKTQEQLQLTRTQLQDINSRYQNLEERITEASQKALVSMRLAQSSRYKTLTSELQKTEQSLAKEQLRYTDDSPIVQSLKQQRRSQLTLVRQELKRLTAELKTQTTPEPEQLVGVDPNLVEEFVQVQTTALGLIANEKSLRESEQRIRSELSKYPSLIAEYQRLLPEVETQRKTLEQMLQAQQSMGMKIAHGGFDWLVLEEANLGTYVGNDRFWLVFVGMITGPILGVVLALIWGMRHRIIHSAQDLQKVSNLRLLGTVPKLAPRTMEKRLPNLSWLGGRNLTESEEVGNSWLPCHETLDMVYQNTQILKYPFPFKSMMVTSALPGEGRTTLAMGLAASAAHMHRRVLLIDANLRSPKLHKILQLSNDWGLSLLLLDETNTEVQDYIQPIHPSIDILTAGPTPEDAVELLSSQRLKDLIELFEETYDLVLIDAPPILGTVDGRIVASYCHGIMMVGRIGWVTQTELTQAVEILNSLNLVGIIANDMSSYHKG | failed
13 | MATPAYMSITGTKQGLITAGAFTEDSVGNTYQEGHEDQVMVQGFNHEVIIPRDPQSGQPTGQRVHKPVVITKVFDKASPLLLAALTSGERLTKVEIQWYRTSAAGTQEHYYTTVLEDAIIVDIKDYMHNCQDPGNAHFTHLEDVHFTYRKITWTHEVSGTSGSDDWRSPVAG | not failed
14 | MAPKKIGAGKGDSSILAKISNYDIVSQGRRAACDAVYVSKKLLKSTGKAAWIAGTTFLILAVPLILELEQDHRLGEIDFEQASLLGTPPVGAML | failed
15 | MIKGTGHMIVNIANDRGMSIDSIRKTIKESVLIAYKKYFGSNENAFIKFDDDTGDLSVYAKKKIVKEVKDSLLEILEKDISKENIVEGDYAYIEINPKVFDRLSIQVAKQRTKNDLQGIEDNEILSEFKSKLNKVVIGYVQQNRNGDLYVNLGLEHHHHHH | not failed
16 | MTKILAIIGARLNSSRLAGKHLLPLACDAAGNTLPIIGHILRRLKTCSTISSIELATTADEFNQPLINWAQENQLTCVPFEGDVNDLMGRLDRIIQRQQPDYIVYICGDCPLIDPNFIDHALLALKASDKDTITLKEGIISLHEGIGFYTRSGWNRLMAVSDCVMSREHVGYGDKLRPVLTKLYIDDSGNYGKITHRISVDTHADYRFMVEVYRRWYVNNPTETVVSLEWVQEELLKDSALFAINAHVQQKAANKNYAKASIYCHLGPQIGLGHFKRSELIANALQEHLSLGVNIHAYSEAGQRLDSSSKVVWHEDEQALLSALTEDQNPLVLLDFHPNFIDLESFANRLAGLAKHGAKRIGIDKMAPLLDELDWLFIPSFNSPTHHPKISAGWRNYLFSTIPQATKQAQILVLTGGSDALGYGRELPTILDSIGTDWPILWIQGPLAPAPQLTPNSAIVVQQNPDNLKEIIAQSEIILSCYGLSLFESIYGKAATLLLPPQHLCDEAELFALNQERCCLVSDSLEEAKMMLQQLLTEPEQRRSLQNQATRVFESHQGIQALIDDIHHLLGAVN | failed
17 | MVLVTSVRDYINRMLQDISGMKVLILDSETVSNVSIVYSQSELLQKEVFLVEMIDSISVSKESMSHLKAVYFIRPTSDNIQKLRYQLANPRFGEYHLFFSNLLKDTQIHILADSDEQEVVQQVQEYYADFVSGDPYHFTLNMASNHLYMIPAVVDPSGLQRFSDRVVDGIAAVFLALKRRPVIRYQRTSDTAKRIAHETAKLMYQHESALFDFRRTESSPLLLVIDRRDDPVTPLLNQWTYQAMVHELIGLQDNKVDLKSIGSLPKDQQVEVVLSSEQDAFFKSNMYENFGDIGMNIKRMVDDFQQVAKSNQNIQTVEDMARFVDNYPEYKKMQGNVSKHVTLVTEMSKLVEARKLMTVSQTEQDLACNGGQGAAYEAVTDLLNNESVSDIDRLRLVMLYALRYEKENPVQLMQLFNKLASRSPKYKPGLVQFLLKQAGVEKRTGDLFGNRDLLNIARNMARGLKGVENVYTQHQPLLFQTMESITRGRLRDVDYPFVGDHFQQGRPQEVVIFMVGGTTYEESRSVALQNATNSGVRFILGGTAVLNSKRFLKDLEEAQRISRSGSHMV | failed
18 | RTDVIVVGVLDWKKGNLSFVSIPRDLMIEGKKINAIYNTYGMEKLFQIIESLLGQKPDSYVIFNYEAFKILVDELGPIEVIPNEVMFYEDLSQNLVIDFKPGVPYKLNGEQLLAYIRYRKDSMGDLARIERQKDVLKKLLSKALS | failed
